Residue numbers refer to the chain shown, from its start. Numbers in names are those of the source. One block for each binder: values may come before it.
Assays:
hILT4-His-Avi tag [1] = target: T1, hILT4-His-Avi tag (human, UniProt Q8N423 22-459); assay: SPR Biacore T200, 37 C; antibody captured on protein A/G chip, monomeric hILT4 as analyte
T1 construct: also called monomeric human ILT4; extracellular region of hILT4 linked to a His-Avi tag
Protocol: (§1) The binding kinetics of the parent and germline reversion mutant anti-hILT4 antibodies (in the context of IgG1.3) were measured via Surface Plasmon Resonance (SPR) using a Biacore® T200 instrument. The assay temperature was 37° C. and the running buffer was PBS pH 7.4 supplemented with 0.05% Tween-20. Allanti-hILT4 antibodies were captured on a CM4 chip with pre-immobilized protein A/G (Pierce Thermo Scientific catalog number 21186). […] Monomeric human ILT4 was injected as analyte. […] The hILT4 used in this experiment, comprising the extracellular region of hILT4 linked to a His-Avi tag, consists of the following amino acid sequence: […]

hILT4-His-Avi tag [2] = target: T1, hILT4-His-Avi tag; assay: SPR Biacore T200, 37 C; antibody captured on protein A/G chip, monomeric hILT4 as analyte; kinetic fit
Protocol: as §1

hILT4-His-Avi tag [3] = target: T1, hILT4-His-Avi tag; assay: SPR Biacore T200, 37 C; antibody captured on protein A/G chip, monomeric hILT4 as analyte; steady state fit
Protocol: as §1

hILT4-His-Avi tag [4] = target: T1, hILT4-His-Avi tag; assay: SPR Biacore T200, 37 C; antibody captured by anti-human Fc on CM4 chip, hILT4-His-Avi as analyte; 1:1 Langmuir fit
Protocol: The running buffer was 10 mM HEPES pH 7.4 supplemented with 0.05% Tween-20 and 1 g/L BSA. All anti-ILT4 antibodies were captured on a CM4 chip with pre-immobilized anti-human Fc capture antibody from Southern Biotech (catalog number 2081-01). […] All data were double-referenced and fitted to a 1:1 Langmuir model with mass transport using Biacore T200 Evaluation Software version 3.1.

[5] = target: T2, human ILT4 (hILT4) expressed on cells (human, UniProt Q8N423 22-597); assay: flow cytometry on hILT4-transfected CHO cells, MFI (PE); EC50 from the table beside the graph; the table has no unit, the concentration axis is in ug/mL
T2 construct: hILT4 on transfected CHO or 293T cells, or native on human monocytes and macrophages; also called LILRB2
T2 sequence (Q8N423 other isoform, or with tags, fused parts or gaps): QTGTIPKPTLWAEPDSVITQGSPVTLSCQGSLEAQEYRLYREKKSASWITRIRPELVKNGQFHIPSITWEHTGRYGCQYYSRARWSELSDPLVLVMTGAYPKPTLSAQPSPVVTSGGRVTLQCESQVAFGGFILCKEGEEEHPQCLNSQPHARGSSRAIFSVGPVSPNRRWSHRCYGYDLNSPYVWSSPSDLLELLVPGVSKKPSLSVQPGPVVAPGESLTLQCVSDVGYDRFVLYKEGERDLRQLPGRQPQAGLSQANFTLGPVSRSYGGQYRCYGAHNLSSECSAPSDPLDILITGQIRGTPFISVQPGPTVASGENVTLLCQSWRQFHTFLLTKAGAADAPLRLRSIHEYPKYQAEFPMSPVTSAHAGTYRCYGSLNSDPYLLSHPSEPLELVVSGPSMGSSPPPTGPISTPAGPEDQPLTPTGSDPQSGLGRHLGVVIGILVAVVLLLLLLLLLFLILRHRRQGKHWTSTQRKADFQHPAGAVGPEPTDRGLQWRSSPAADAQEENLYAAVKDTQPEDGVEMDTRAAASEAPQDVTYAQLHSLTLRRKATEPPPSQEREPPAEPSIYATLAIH

human LILRA3 = target: T3, human LILRA3 (human, UniProt Q8N6C8 24-439); assay: antibody titration flow cytometry binding assay on transfected cells, nonlinear regression
T3 construct: whole, on cells; also called hLILRA3; LIRA3
T3 sequence (Q8N6C8 24-439): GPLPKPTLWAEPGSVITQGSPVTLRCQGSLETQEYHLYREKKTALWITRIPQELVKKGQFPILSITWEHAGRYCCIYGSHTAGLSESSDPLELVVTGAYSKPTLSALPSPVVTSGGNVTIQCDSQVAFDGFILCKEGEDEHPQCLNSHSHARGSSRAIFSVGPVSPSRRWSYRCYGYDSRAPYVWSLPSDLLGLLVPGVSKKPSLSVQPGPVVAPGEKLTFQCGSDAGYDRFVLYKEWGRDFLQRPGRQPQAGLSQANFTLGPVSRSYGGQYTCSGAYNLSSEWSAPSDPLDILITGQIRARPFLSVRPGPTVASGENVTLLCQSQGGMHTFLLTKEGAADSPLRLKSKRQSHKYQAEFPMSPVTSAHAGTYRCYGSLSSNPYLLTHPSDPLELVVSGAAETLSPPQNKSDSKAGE

[6] = target: T2, human ILT4 (hILT4) expressed on cells; assay: as above
[7] = target: T2, human ILT4 (hILT4) expressed on cells; assay: flow cytometry on hILT4-transfected CHO cells, PE anti-human IgG secondary, GMFI (PE); EC50 from the table below the graph; the table has no unit, the concentration axis is in ug/mL
[8] = target: T2, human ILT4 (hILT4) expressed on cells; assay: flow cytometry on human monocytes of a healthy donor, directly labelled antibody, GMFI; EC50 from the table below the graph; the table has no unit, the concentration axis is in ug/mL
Source text: In FIG. 18B, monocytes selected from a normal healthy donor's peripheral blood were stained with individual anti-ILT4 antibodies conjugated to […].

human ILT3 = target: T4, human ILT3 (human, UniProt Q8NHJ6 22-448); assay: flow cytometry, 293T transfectants, antibody 20 µg/ml; stacked histograms, control: parental cells
T4 construct: whole, on cells; also called hILT3
Protocol: (§2) Individual ILT family members were overexpressed in 293T cells. Each transfectant was stained with 20 μg/ml of anti-ILT4 antibodies followed by 1 μg/ml of anti-human IgG secondary mAb. Binding of the antibodies to each transfectant was measured by flow cytometry.

human LIR8 = target: T5, human LIR8 (human, UniProt O75023 24-590); assay: as above
T5 construct: whole, on cells; also called hLIR8
T5 sequence (O75023 24-590): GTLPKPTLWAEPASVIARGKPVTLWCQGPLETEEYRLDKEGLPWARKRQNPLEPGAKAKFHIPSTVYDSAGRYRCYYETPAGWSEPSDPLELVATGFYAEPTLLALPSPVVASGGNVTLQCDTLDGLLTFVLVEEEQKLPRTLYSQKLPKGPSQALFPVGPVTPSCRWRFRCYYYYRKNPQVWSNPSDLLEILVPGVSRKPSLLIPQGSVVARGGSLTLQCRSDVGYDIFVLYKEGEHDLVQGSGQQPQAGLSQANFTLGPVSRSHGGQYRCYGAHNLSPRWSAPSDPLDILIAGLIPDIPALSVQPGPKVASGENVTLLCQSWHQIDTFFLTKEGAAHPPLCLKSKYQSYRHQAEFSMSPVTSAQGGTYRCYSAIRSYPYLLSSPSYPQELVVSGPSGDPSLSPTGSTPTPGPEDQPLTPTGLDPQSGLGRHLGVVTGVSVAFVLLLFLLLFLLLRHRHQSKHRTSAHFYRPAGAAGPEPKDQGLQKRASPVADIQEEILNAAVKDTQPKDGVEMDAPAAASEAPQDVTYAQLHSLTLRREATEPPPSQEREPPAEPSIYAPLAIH
Protocol: as §2

human LILRA6 = target: T6, human LILRA6 (human, UniProt Q6PI73 24-481); assay: as above
T6 construct: whole, on cells; also called hLILRA6
T6 sequence (Q6PI73 24-481): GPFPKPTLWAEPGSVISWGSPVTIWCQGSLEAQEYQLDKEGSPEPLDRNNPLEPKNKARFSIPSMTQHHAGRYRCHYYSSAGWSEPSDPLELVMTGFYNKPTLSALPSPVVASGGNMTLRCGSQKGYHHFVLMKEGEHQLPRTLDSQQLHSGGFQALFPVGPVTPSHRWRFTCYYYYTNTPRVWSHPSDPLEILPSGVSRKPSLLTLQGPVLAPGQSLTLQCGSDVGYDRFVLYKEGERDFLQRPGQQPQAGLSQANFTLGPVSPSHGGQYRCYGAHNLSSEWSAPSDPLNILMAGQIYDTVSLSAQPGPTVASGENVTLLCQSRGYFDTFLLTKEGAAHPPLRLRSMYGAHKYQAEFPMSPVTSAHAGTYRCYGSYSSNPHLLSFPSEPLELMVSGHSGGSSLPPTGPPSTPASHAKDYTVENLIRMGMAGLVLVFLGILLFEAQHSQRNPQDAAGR
Protocol: as §2

human ILT2 = target: T7, human ILT2 (human, UniProt Q8NHL6 24-650); assay: as above
T7 construct: whole, on cells; also called hILT2
T7 sequence (Q8NHL6 24-650): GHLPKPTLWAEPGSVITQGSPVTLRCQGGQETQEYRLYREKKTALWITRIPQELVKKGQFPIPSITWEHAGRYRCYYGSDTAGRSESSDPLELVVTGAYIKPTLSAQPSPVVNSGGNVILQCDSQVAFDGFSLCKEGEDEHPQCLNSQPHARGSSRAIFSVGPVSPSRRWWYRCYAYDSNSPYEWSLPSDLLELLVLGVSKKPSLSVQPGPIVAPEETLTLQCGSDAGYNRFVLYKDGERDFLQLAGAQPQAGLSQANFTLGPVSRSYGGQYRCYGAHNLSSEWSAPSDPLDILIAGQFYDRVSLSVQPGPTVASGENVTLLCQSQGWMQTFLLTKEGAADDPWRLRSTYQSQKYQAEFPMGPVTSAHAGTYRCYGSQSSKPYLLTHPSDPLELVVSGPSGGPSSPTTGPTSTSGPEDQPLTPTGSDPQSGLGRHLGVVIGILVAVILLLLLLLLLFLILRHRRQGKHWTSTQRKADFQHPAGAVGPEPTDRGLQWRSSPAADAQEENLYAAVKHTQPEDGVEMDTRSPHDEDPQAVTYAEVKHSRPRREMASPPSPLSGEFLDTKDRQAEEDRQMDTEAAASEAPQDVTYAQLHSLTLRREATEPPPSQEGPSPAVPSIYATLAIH
Protocol: as §2

human ILT5 = target: T8, human ILT5 (human, UniProt O75022 24-631); assay: as above
T8 construct: whole, on cells; also called hILT5; LILRB3
Protocol: as §2

human LILRA4 = target: T9, human LILRA4 (human, UniProt P59901 24-499); assay: as above
T9 construct: whole, on cells; also called hLILRA4
T9 sequence (P59901 24-499): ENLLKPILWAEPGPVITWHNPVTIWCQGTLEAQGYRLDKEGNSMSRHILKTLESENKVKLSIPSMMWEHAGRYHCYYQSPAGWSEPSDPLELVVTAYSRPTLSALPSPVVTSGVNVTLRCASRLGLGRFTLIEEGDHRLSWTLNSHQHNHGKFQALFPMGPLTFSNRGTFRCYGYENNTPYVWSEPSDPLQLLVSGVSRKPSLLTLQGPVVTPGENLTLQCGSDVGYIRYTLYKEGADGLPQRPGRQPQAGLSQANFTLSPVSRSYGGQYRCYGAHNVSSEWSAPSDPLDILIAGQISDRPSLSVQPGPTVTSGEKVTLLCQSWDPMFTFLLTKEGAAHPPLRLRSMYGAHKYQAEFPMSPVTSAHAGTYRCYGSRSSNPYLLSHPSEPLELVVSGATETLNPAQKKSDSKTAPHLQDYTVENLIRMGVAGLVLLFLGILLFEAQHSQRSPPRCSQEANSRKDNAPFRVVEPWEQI
Protocol: as §2

human LILRA2 = target: T10, human LILRA2 (human, UniProt Q8N149 24-483); assay: as above
T10 construct: whole, on cells; also called hLILRA2
T10 sequence (Q8N149 24-483): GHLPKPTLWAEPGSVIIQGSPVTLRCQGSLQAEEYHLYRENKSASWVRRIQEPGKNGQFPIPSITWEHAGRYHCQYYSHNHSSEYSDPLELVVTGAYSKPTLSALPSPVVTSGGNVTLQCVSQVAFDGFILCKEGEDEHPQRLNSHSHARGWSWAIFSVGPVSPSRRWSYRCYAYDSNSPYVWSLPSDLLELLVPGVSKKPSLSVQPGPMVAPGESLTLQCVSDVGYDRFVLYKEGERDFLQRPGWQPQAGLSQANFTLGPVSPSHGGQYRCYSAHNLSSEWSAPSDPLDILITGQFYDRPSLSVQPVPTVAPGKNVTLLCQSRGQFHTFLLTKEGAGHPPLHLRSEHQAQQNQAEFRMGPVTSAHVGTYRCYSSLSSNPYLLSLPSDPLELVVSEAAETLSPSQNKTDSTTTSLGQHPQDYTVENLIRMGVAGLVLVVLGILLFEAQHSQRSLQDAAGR
Protocol: as §2

human LILRA5 = target: T11, human LILRA5 (human, UniProt A6NI73 42-299); assay: as above
T11 construct: whole, on cells; also called hLILRA5
T11 sequence (A6NI73 42-299): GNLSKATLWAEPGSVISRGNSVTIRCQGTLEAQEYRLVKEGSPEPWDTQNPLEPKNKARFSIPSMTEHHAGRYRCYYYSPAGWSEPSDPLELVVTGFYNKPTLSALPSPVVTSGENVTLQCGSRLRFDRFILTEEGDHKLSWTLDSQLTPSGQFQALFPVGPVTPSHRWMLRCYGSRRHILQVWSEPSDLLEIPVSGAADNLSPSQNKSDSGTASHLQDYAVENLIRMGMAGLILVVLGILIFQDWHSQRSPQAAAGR
Protocol: as §2

T1 sequence (Q8N423 other isoform, or with tags, fused parts or gaps): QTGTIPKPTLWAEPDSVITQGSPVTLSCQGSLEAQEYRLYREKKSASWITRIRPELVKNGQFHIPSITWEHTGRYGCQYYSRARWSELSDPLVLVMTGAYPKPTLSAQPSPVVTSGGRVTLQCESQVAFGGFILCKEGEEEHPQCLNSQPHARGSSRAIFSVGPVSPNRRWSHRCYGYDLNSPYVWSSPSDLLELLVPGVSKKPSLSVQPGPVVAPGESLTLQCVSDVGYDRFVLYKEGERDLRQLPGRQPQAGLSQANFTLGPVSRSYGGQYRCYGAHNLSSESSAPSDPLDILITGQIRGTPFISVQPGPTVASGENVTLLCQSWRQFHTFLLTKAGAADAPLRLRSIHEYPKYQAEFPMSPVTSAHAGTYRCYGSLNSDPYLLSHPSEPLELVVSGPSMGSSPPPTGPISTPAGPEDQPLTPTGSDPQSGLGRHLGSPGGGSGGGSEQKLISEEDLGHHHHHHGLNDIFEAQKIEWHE

B1: 10F10.1.IgG1.3 (antibody, V domains shown)
VH: QVQLVESGGGVVQPGRSLRLSCAASGFTFSSYAMHWVRQAPGKGLEWVAIISYDEYNKYYADSVKGRFTISRDNSKNTLYLQMNSLRAEDTAVYYCAREWVGIRYWGQGTLVTVSS
VL: AIQLTQSPSSLSASVGDRVTITCRASQGISSALAWYQQKPGKAPKLLIYDASSLESGVPSRFTGSGSGTDFTLTISSLQPEDFATYYCQQFNSYPITFGQGTRLEIKR
notes: Germline reversion mutant of 10F10 (light chain F36Y); heavy chain of 10F10; IgG1.3; also called 10F10.VK-F36Y.IgG1.3
fold loss in overall affinity relative to parent 10F10 (hILT4-His-Avi tag [1]): ~3 fold
Kd (hILT4-His-Avi tag [2]): 46 nM
app. act. (hILT4-His-Avi tag [2]): 94%
koff (hILT4-His-Avi tag [2]): ~0.07 s⁻¹
kon (hILT4-His-Avi tag [2]): 1.5e+06 M⁻¹ s⁻¹
Kd (hILT4-His-Avi tag [3]): 56 nM
app. act. (hILT4-His-Avi tag [3]): 88%

B5: 2E5.A11 (antibody, V domains shown)
VH: QVQLVESGGGVVQPGRSLRLSCTASGFTFSNYGMHWVRQAPGKGLEWVAVIWYDGSNEYYAESVKGRLTISRDNSKNTLYLQVNSLRAEDTAVYYCARDPFYGSGNYFDYWGQGTLVTVSS
VL: not shown
notes: Hybridoma antibody (human IgG / human kappa), tested as hybridoma supernatant
EC50 [5]: 0.0986 µg/mL

B6: 9C8.A6 (antibody, V domains shown)
VH: QVQLVQSGAEVKKPGASVKVSCKASGYTFTSSDINWVRQATGQGLEWMGWMNPNSGHTGYAQKFQDRVTLTRDTSISTAYMELSSLRSEDSAVYYCARGGNSIDWGFSYYGLDVWGQGTTVTVSS
VL: AIQLTQSPSSLSASVGDRVTITCRASQGISSALAWYQQKPGKAPKLLIYDASSLESGVPSRFSGSGSGTDFTLTISSLQPEDFATYYCQQFNSYPFTFGPGTKVDIK
notes: Hybridoma antibody (human IgG / human kappa from transgenic mice), tested as hybridoma supernatant
EC50 [5]: 0.189 µg/mL

B8: 9G4 (antibody, V domains shown)
VH: QVQLQESGPGLVKPSETLSLTCTVSGGSISSYYWNWIRQPPGKGLEWLGYIYYSGSTKYNPSLKSRVTISVDTSKNQFSLKLSSVTAADTAVYYCASSGWYYFDYWGQGTLVTVSS
VL: EIVLTQSPATLSLSPGERATLSCRASQSVSSYLAWYQQKPGQAPRLLIYDASNRATGIPARFSGSGSGTDFTLTISSLEPEDFAGYYCQQRSYWPWTFGQGTKVEIK
notes: Hybridoma antibody (human IgG / human kappa), tested as hybridoma supernatant; also called 9G4 (hybridoma)
EC50 [5]: 2.84 µg/mL

B10: 21D9.b.hIgG1.3 (antibody)
heavy: EVQLLESGGGLVQPGGSLRLSCATSGFTFSNYAMNWVRQAPGKGLEWISVISVSGGSTYYADSVKGRFTISRDNSKNTLYLQMNSLRAEDTAVYYCAKDYYYDSGSYYDSFFDYWGQGTLVTVSSASTKGPSVFPLAPSSKSTSGGTAALGCLVKDYFPEPVTVSWNSGALTSGVHTFPAVLQSSGLYSLSSVVTVPSSSLGTQTYICNVNHKPSNTKVDKRVEPKSCDKTHTCPPCPAPEAEGAPSVFLFPPKPKDTLMISRTPEVTCVVVDVSHEDPEVKFNWYVDGVEVHNAKTKPREEQYNSTYRVVSVLTVLHQDWLNGKEYKCKVSNKALPAPIEKTISKAKGQPREPQVYTLPPSREEMTKNQVSLTCLVKGFYPSDIAVEWESNGQPENNYKTTPPVLDSDGSFFLYSKLTVDKSRWQQGNVFSCSVMHEALHNHYTQKSLSLSPG
light: not shown
notes: Germline reversion mutant of 21D9 (VH G2V, D10G); light chain of 21D9; IgG1.3
Kd (hILT4-His-Avi tag [2]): 0.34 nM
app. act. (hILT4-His-Avi tag [2]): 90%
koff (hILT4-His-Avi tag [2]): 0.0011 s⁻¹
kon (hILT4-His-Avi tag [2]): 3.1e+06 M⁻¹ s⁻¹

Other lines, results leading:

fold loss in overall affinity relative to parent 10F10 (hILT4-His-Avi tag [1]): ~3 fold
Kd (hILT4-His-Avi tag [2]): 47 nM
app. act. (hILT4-His-Avi tag [2]): 123%
koff (hILT4-His-Avi tag [2]): ~0.08 s⁻¹
kon (hILT4-His-Avi tag [2]): 1.7e+06 M⁻¹ s⁻¹
Kd (hILT4-His-Avi tag [3]): 52 nM
app. act. (hILT4-His-Avi tag [3]): 115%
B2: 10F10.3.IgG1.3 (antibody, V domains shown)
VH: B1 VH
VL: B1 VL with T63S
notes: Germline reversion mutant of 10F10 (light chain F36Y and T63S); heavy chain of 10F10; IgG1.3; also called ILT4.11.IgG1.3; 10F10.VK-F36Y/T63S.IgG1.3

Kd (hILT4-His-Avi tag [4]): 22 nM
app. act. (hILT4-His-Avi tag [4]): 117%
koff (hILT4-His-Avi tag [4]): 0.027 s⁻¹
kon (hILT4-His-Avi tag [4]): 1.2e+06 M⁻¹ s⁻¹
B3: 10F10.4 (antibody, human IgG1, kappa, V domains shown)
VH: B1 VH
VL: B1 VL with Y36F, T63S
notes: 10F10 with only the light chain reversion T63S

EC50 [5]: 0.268 µg/mL
B4: 24E5.A7 (antibody, V domains shown)
VH: EVQLLESGGGLVQPGGSLRLSCAASGFTFSSYVMSWVRQAPGKGLEWVSGISGSGGSTYYADSVKGRFTISRDNSKNTLYLQMNSLRAEDTAVYYCAKDQDIIAAYYFVYWGQGTLVTVSS
VL: DIQMTQSPSSLSASVGDRVTITCRASQGISSWLAWYQQKPEKAPKSLIYAASSLQSGVPSRFSGSGSGTDFTLTISSLQPEDFATYYCQQYNSYPLTFGGGTKVEIK
notes: as for B5

EC50 (human LILRA3): 52.9 µg/mL
EC50 [6]: 0.085 µg/mL
EC50 [7]: 0.0627 µg/mL
Kd (hILT4-His-Avi tag [4]): 0.036 nM
app. act. (hILT4-His-Avi tag [4]): 100%
koff (hILT4-His-Avi tag [4]): 1.7e-05 s⁻¹
kon (hILT4-His-Avi tag [4]): 490000 M⁻¹ s⁻¹
Kd (hILT4-His-Avi tag [2]): 0.17 nM
app. act. (hILT4-His-Avi tag [2]): 98%
koff (hILT4-His-Avi tag [2]): 0.00019 s⁻¹
kon (hILT4-His-Avi tag [2]): 1.1e+06 M⁻¹ s⁻¹
EC50 [8]: 0.395 µg/mL
binding result (human ILT3): no binding (tested: 20 µg/ml)
binding result (human LIR8): no binding (tested: 20 µg/ml)
binding result (human LILRA6): no binding (tested: 20 µg/ml)
binding result (human ILT2): no binding (tested: 20 µg/ml)
binding result (human ILT5): no binding (tested: 20 µg/ml)
binding result (human LILRA4): no binding (tested: 20 µg/ml)
binding result (human LILRA2): no binding (tested: 20 µg/ml)
binding result (human LILRA5): no binding (tested: 20 µg/ml)
B7: 21A5.a.IgG1.3 (antibody, V domains shown)
VH: QVQLVQSGAEVKKPGASVKVSCKASGYTFTDYYLHWVRQAPGQGLEWMGIFHPSGDITSSAQNFQGRVTMTRDTSTSTVYMELSSLRSEDTAVYYCARGGVLRYLDWSHAFDIWGQGTMVTVSS
VL: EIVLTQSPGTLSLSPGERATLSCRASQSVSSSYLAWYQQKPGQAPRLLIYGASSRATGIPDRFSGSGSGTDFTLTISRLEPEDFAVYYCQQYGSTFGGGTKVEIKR
notes: Germline reversion mutant of 21A5 (VH I70T, VK A3V; 21A5.1 light chain); IgG1.3; also called ILT4.9.IgG1.3; ILT4.9

EC50 [5]: 0.0174 µg/mL
B9: 21D9.H11 (antibody, V domains shown)
VH: EGQLLESGGDLVQPGGSLRLSCATSGFTFSNYAMNWVRQAPGKGLEWISVISVSGGSTYYADSVKGRFTISRDNSKNTLYLQMNSLRAEDTAVYYCAKDYYYDSGSYYDSFFDYWGQGTLVTVSS
VL: not shown
notes: Hybridoma antibody (human IgG / human kappa), tested as hybridoma supernatant; also called 21D9 (hybridoma)

Kd (hILT4-His-Avi tag [2]): 0.35 nM
app. act. (hILT4-His-Avi tag [2]): 84%
koff (hILT4-His-Avi tag [2]): 0.0011 s⁻¹
kon (hILT4-His-Avi tag [2]): 3.1e+06 M⁻¹ s⁻¹
B11: 21D9.d.hIgG1.3 (antibody, V domains shown)
VH: B9 VH with G2V, I48V
VL: not shown
notes: Germline reversion mutant of 21D9; light chain of 21D9; IgG1.3; also called 21D9.VH-G2V/I48V

Kd (hILT4-His-Avi tag [2]): 0.42 nM
app. act. (hILT4-His-Avi tag [2]): 97%
koff (hILT4-His-Avi tag [2]): 0.0012 s⁻¹
kon (hILT4-His-Avi tag [2]): 3e+06 M⁻¹ s⁻¹
B12: 21D9.c.hIgG1.3 (antibody, V domains shown)
VH: B9 VH with G2V, T24A
VL: not shown
notes: Germline reversion mutant of 21D9; light chain of 21D9; IgG1.3; also called 21D9.VH-G2V/T24A.IgG1.3

From patent US20200079848A1 (Five Prime, published 2020)
